# From patent US20230265151A1, “GIP/GLP1 CO-AGONIST COMPOUNDS” (priority 2020, published 2023)
# *1 amine or outer side, *2 acyl side, *3 side chain or, on linkers, in order; H or OH if unused. Where no end group is shown, it is not given here. Side-chain parts run from the residue outwards. [ ]: non-standard residue; d: D form. The star is where a group is joined. αMePhe(2-F) = C[C@](N)(Cc1ccccc1F)C(=O)O; γGlu = O=C(O)[C@H](CCC(=O)[*:2])N[*:1]; C14 diacid = O=C(O)CCCCCCCCCCCCC(=O)*; εLys = N[C@@H](CCCCN[*:1])C(=O)[*:2]; αMeY = C[C@](N)(Cc1ccc(O)cc1)C(=O)O; αMeL = CC(C)C[C@](C)(N)C(=O)O; Orn = NCCC[C@H](N)C(=O)O; Dap = NC[C@H](N)C(=O)O; AEEA = NCCOCCOCC(=O)O; Aib = CC(C)(N)C(=O)O
# T1: human GIP receptor (human, UniProt P48546 22-466)
# T1 sequence (looked up): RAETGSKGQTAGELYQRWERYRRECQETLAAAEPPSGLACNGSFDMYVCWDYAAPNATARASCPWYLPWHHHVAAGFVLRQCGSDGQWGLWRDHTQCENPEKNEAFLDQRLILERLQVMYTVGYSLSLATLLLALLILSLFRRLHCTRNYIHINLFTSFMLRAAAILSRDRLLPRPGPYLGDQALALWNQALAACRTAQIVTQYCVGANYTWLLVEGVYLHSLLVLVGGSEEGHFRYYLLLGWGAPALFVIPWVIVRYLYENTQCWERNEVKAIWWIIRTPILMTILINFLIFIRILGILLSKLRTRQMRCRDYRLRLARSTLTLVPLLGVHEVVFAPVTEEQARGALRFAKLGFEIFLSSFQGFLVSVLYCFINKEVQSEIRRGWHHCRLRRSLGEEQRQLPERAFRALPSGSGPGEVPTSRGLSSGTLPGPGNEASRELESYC
# What was measured:
# Test in all cases: cell-based or functional assay
# human GLP-1 receptor = human GLP-1 receptor (human, UniProt P43220 24-463)
# human GIP receptor = target: T1, human GIP receptor
# human glucagon receptor = human glucagon receptor (human, UniProt P47871 26-477)
Binder,cAMP EC50 (1.0% HSA) (human GLP-1 receptor) [µM],cAMP EC50 (1.0% HSA) (human GIP receptor) [µM],cAMP Emax (1.0% HSA) (human GIP receptor) [%],cAMP Emax (1.0% HSA) (human GLP-1 receptor) [%],cAMP EC50 (1.0% HSA) (human glucagon receptor) [µM]
Y[Aib]EGT[αMePhe(2-F)]TSDV[Aib]I[αMeL]LD[Orn]K([εLys-γGlu-C14 diacid])AQ[Aib]EFI[dE][αMeY]LIEGGK([εLys-γGlu-C14 diacid])SSGAPPPS-NH2 (N-terminus assumed; SMILES CC[C@H](C)[C@H](NC(=O)[C@H](CC(C)C)NC(=O)[C@](C)(Cc1ccc(O)cc1)NC(=O)[C@@H](CCC(=O)O)NC(=O)[C@@H](NC(=O)[C@H](Cc1ccccc1)NC(=O)[C@H](CCC(=O)O)NC(=O)C(C)(C)NC(=O)[C@H](CCC(N)=O)NC(=O)[C@H](C)NC(=O)[C@H](CCCCNC(=O)[C@@H](N)CCCCNC(=O)CC[C@H](NC(=O)CCCCCCCCCCCCC(=O)O)C(=O)O)NC(=O)[C@H](CCCN)NC(=O)[C@H](CC(=O)O)NC(=O)[C@H](CC(C)C)NC(=O)[C@](C)(CC(C)C)NC(=O)[C@@H](NC(=O)C(C)(C)NC(=O)[C@@H](NC(=O)[C@H](CC(=O)O)NC(=O)[C@H](CO)NC(=O)[C@@H](NC(=O)[C@](C)(Cc1ccccc1F)NC(=O)[C@@H](NC(=O)CNC(=O)[C@H](CCC(=O)O)NC(=O)C(C)(C)NC(=O)[C@@H](N)Cc1ccc(O)cc1)[C@@H](C)O)[C@@H](C)O)C(C)C)[C@@H](C)CC)[C@@H](C)CC)C(=O)N[C@@H](CCC(=O)O)C(=O)NCC(=O)NCC(=O)N[C@@H](CCCCNC(=O)[C@@H](N)CCCCNC(=O)CC[C@H](NC(=O)CCCCCCCCCCCCC(=O)O)C(=O)O)C(=O)N[C@@H](CO)C(=O)N[C@@H](CO)C(=O)NCC(=O)N[C@@H](C)C(=O)N1CCC[C@H]1C(=O)N1CCC[C@H]1C(=O)N1CCC[C@H]1C(=O)N[C@@H](CO)C(N)=O),0.0266,0.00362,,,
Y[Aib]EGT[αMePhe(2-F)]TSDV[Dap]I[αMeL]LD[Orn]K([AEEA-AEEA-γGlu-C14 diacid])AQ[Aib]EFI[dE][αMeY]LIEGGK([AEEA-AEEA-γGlu-C14 diacid])SSGAPPPS-NH2 (N-terminus assumed; SMILES CC[C@H](C)[C@H](NC(=O)[C@H](CC(C)C)NC(=O)[C@](C)(Cc1ccc(O)cc1)NC(=O)[C@@H](CCC(=O)O)NC(=O)[C@@H](NC(=O)[C@H](Cc1ccccc1)NC(=O)[C@H](CCC(=O)O)NC(=O)C(C)(C)NC(=O)[C@H](CCC(N)=O)NC(=O)[C@H](C)NC(=O)[C@H](CCCCNC(=O)COCCOCCNC(=O)COCCOCCNC(=O)CC[C@H](NC(=O)CCCCCCCCCCCCC(=O)O)C(=O)O)NC(=O)[C@H](CCCN)NC(=O)[C@H](CC(=O)O)NC(=O)[C@H](CC(C)C)NC(=O)[C@](C)(CC(C)C)NC(=O)[C@@H](NC(=O)[C@H](CN)NC(=O)[C@@H](NC(=O)[C@H](CC(=O)O)NC(=O)[C@H](CO)NC(=O)[C@@H](NC(=O)[C@](C)(Cc1ccccc1F)NC(=O)[C@@H](NC(=O)CNC(=O)[C@H](CCC(=O)O)NC(=O)C(C)(C)NC(=O)[C@@H](N)Cc1ccc(O)cc1)[C@@H](C)O)[C@@H](C)O)C(C)C)[C@@H](C)CC)[C@@H](C)CC)C(=O)N[C@@H](CCC(=O)O)C(=O)NCC(=O)NCC(=O)N[C@@H](CCCCNC(=O)COCCOCCNC(=O)COCCOCCNC(=O)CC[C@H](NC(=O)CCCCCCCCCCCCC(=O)O)C(=O)O)C(=O)N[C@@H](CO)C(=O)N[C@@H](CO)C(=O)NCC(=O)N[C@@H](C)C(=O)N1CCC[C@H]1C(=O)N1CCC[C@H]1C(=O)N1CCC[C@H]1C(=O)N[C@@H](CO)C(N)=O),0.0251,0.0132,80.5,,
"YXEGTXTSDXSIXLDXKAQXEFIXXLIEGKPSSGAPPPS (Aib2, αMeF(2F)6, 4Pal10, αMeL13, Orn16, Aib20, D-Glu24, αMeY25; acylated K17, K30 (groups as in name); C-terminal amide) [Y-Aib-EGT-αMeF(2F)-TSD-4Pal-SI-αMeL-LD-Orn-K((2-[2-(2-Amino-ethoxy)-ethoxy]-acetyl)2-(γ-Glu)-CO-(CH2)12-CO2H)AQ-Aib-EFI-(D-Glu)-αMeY-LIEGK((2-[2-(2-Amino-ethoxy …, listing 1 of 2 here]",,0.00112,,103,> 9.95
"YXEGTXTSDXSIXLDXKAQXEFIXXLIEGKPSSGAPPPS (Aib2, αMeF(2F)6, 4Pal10, αMeL13, Orn16, Aib20, D-Glu24, αMeY25; acylated K17, K30 (groups as in name); C-terminal amide) [Y-Aib-EGT-αMeF(2F)-TSD-4Pal-SI-αMeL-LD-Orn-K((2-[2-(2-Amino-ethoxy)-ethoxy]-acetyl)2-(γ-Glu)-CO-(CH2)14-CH3)AQ-Aib-EFI-(D-Glu)-αMeY-LIEGK((2-[2-(2-Amino-ethoxy) …, listing 2 of 2 here]",,0.000444,,103,> 9.95
"YXEGTXTSDXSIXLDXKAQXEFIXXLIEGGKSSGAPPPS (Aib2, αMeF(2F)6, OMeY10, αMeL13, Orn16, Aib20, D-Glu24, αMeY25; acylated K17, K31 (groups as in name); C-terminal amide)",0.0216,0.00112,,,> 9.95
"YXEGTXTSDXSIXLDXKAQXEFIXXLIEGGKSSGAPPPS (Aib2, αMeF(2F)6, αMeL10, αMeL13, Orn16, Aib20, D-Glu24, αMeY25; acylated K17, K31 (groups as in name); C-terminal amide)",0.1,0.0158,,,> 9.95
"YXEGTXTSDYXIXLDXKAQXEFIXXLIEGGKSSGAPPPS (Aib2, αMeF(2F)6, αMeS11, αMeL13, Orn16, Aib20, D-Glu24, αMeY25; acylated K17, K31 (groups as in name); C-terminal amide)",0.0201,0.00151,92.4,,> 9.95
"YXEGTXTSDXSIXLDXKAQXEFIXXLIEGGKSSGAPPPS (Aib2, αMeF6, 4Pal10, αMeF13, Orn16, Aib20, D-Glu24, αMeY25; acylated K17, K31 (groups as in name); C-terminal amide)",0.261,0.0128,73.3,,> 9.95
"YXEGTXTSDVXIXLDXKAQXEFIXXLIEGGKSSGAPPPS (Aib2, αMeF(2F)6, αMeS11, αMeL13, Orn16, Aib20, D-Glu24, αMeY25; acylated K17, K31 (groups as in name); C-terminal amide)",0.0337,0.0166,81,91,
"YXEGTXTSDXSIXLDXKAQXEFIXXLIEGGKSSGAPPPS (Aib2, αMeF6, αMeF10, αMeL13, Orn16, Aib20, D-Glu24, αMeY25; acylated K17, K31 (groups as in name); C-terminal amide)",0.387,0.0137,72.5,,> 9.95
"YXEGTXTSDYXIXLDXKAQXEFIXXLIEGGKSSGAPPPS (Aib2, αMeF(2F)6, Aib11, αMeL13, Orn16, Aib20, D-Glu24, αMeY25; acylated K17, K31 (groups as in name); C-terminal amide)",0.0278,0.00181,91.4,,> 9.95
"YXEGTXTSDXSIXLDXKAQXEFIXXLIEGGKSSGAPPPS (Aib2, αMeF(2F)6, Ac5c10, αMeL13, Orn16, Aib20, D-Glu24, αMeY25; acylated K17, K31 (groups as in name); C-terminal amide)",0.0132,0.00353,,89.3,> 9.95
"YXEGTXTSDXSIXLDXKAQXEFIXXLIEGGKSSGAPPPS (Aib2, αMeF(2F)6, Ac6c10, αMeL13, Orn16, Aib20, D-Glu24, αMeY25; acylated K17, K31 (groups as in name); C-terminal amide)",0.0203,0.000865,,,> 9.95
"YXEGTXTSDXSIXLDXKAQXEXIXXLIEGGKSSGAPPPS (Aib2, αMeF(2F)6, 4Pal10, αMeL13, Orn16, Aib20, 3FPhe22, D-Glu24, αMeY25; acylated K17, K31 (groups as in name); C-terminal amide)",0.027,0.000986,90.5,87.8,> 9.95
"YXEGTXTSDXSIXLDXKAQXEXIXXLIEGGKSSGAPPPS (Aib2, αMeF(2F)6, 4Pal10, αMeL13, Orn16, Aib20, 3,5FPhe22, D-Glu24, αMeY25; acylated K17, K31 (groups as in name); C-terminal amide)",0.0255,0.00105,,104,> 9.95
"YXEGTXTSDXSIXLDXKAQXEXIXXLIEGGKSSGAPPPS (Aib2, αMeF(2F)6, 4Pal10, αMeL13, Orn16, Aib20, 2ClPhe22, D-Glu24, αMeY25; acylated K17, K31 (groups as in name); C-terminal amide)",0.0369,0.000744,92.8,89.7,> 9.95
"YXEGTXTSDXSIXLDXKAQXEFIXXLIEGGKSSGAPPPS (Aib2, αMeF(2F)6, αMeV10, αMeL13, Orn16, Aib20, D-Glu24, αMeY25; acylated K17, K31 (groups as in name); C-terminal amide)",0.0378,0.0186,,,> 9.95
"YXEGTXTSDXSIXLDXKAQXEFIXXLIEGGKSSGAPPPS (Aib2, αMeF(2F)6, hTyr10, αMeL13, Orn16, Aib20, D-Glu24, αMeY25; acylated K17, K31 (groups as in name); C-terminal amide)",0.0162,0.00152,,,> 9.95
"YXEGTXTSDXSKXLDXKAQXEFIXXLIEGGPSSGAPPPS (Aib2, αMeF(2F)6, 4Pal10, αMeL13, Orn16, Aib20, D-Glu24, αMeY25; acylated K12, K17 (groups as in name); C-terminal amide)",0.0604,0.00208,93,,> 9.95
"YXEGTXTSDXSIXLDXKAQXEXIXXLIEGGKSSGAPPPS (Aib2, αMeF(2F)6, 4Pal10, αMeL13, Orn16, Aib20, 3ClPhe22, D-Glu24, αMeY25; acylated K17, K31 (groups as in name); C-terminal amide)",0.034,0.00127,,85.8,> 9.95
"YXEGTXTSDXSIXLDXKAQXEFIXXLIEGGKSSGAPPPS (Aib2, αMeF6, 4Pal10, αMeL13, Orn16, Aib20, D-Glu24, αMeF25; acylated K17, K31 (groups as in name); C-terminal amide)",0.118,0.00212,,,> 9.95
"YXEGTXTSDXSIXLDXKAQXEFIXXLIEGGKSSGAPPPS (Aib2, αMeF(2F)6, Nle10, αMeL13, Orn16, Aib20, D-Glu24, αMeY25; acylated K17, K31 (groups as in name); C-terminal amide)",0.0285,0.0012,,,> 9.95
"YXEGTXTSDXSIXLDXKAQXEXIXXLIEGGKSSGAPPPS (Aib2, αMeF(2F)6, 4Pal10, αMeL13, Orn16, Aib20, 2FPhe22, D-Glu24, αMeY25; acylated K17, K31 (groups as in name); C-terminal amide)",0.0476,0.000771,,98,> 9.95
"YXEGTXTSDXSIXLDXKAQXEFIXXLIEGGKSSGAPPPS (Aib2, αMeF(2F)6, 2Nal10, αMeL13, Orn16, Aib20, D-Glu24, αMeY25; acylated K17, K31 (groups as in name); C-terminal amide)",0.0393,0.00455,,,> 9.95
"YXEGTXTSDXSIXLDXKAQXEFIXXLIEGGKSSGAPPPS (Aib2, αMeF(2F)6, Bip10, αMeL13, Orn16, Aib20, D-Glu24, αMeY25; acylated K17, K31 (groups as in name); C-terminal amide)",0.0705,0.00662,,,> 9.95
